The values below come from PMC5362816, “Calmodulin is responsible for Ca^2+-dependent regulation of TRPA1 Channels” (Scientific Reports, 2017).

One experiment addresses T1, pure CaM (Sigma) (UniProt P62157 1-149).
T1 construct: pure calmodulin bought from Sigma; also called calmodulin; source: bought: Sigma
In words: native gel or EMSA; 600 nM CaM incubated with different molar ratios of peptide; 10 mM Na-HEPES pH 7.2, 2 mM Ca2+, room temperature, 1 h; 12% non-denaturing PAGE with 2 mM Ca2+; silver staining (read-out: CaM band intensity, no mobility shift). Conditions: both partners purified. In general terms: Mobility shift assays separate free from complexed probe on a gel.

The next experiment has as its target T2, CaM-agarose (Sigma) (UniProt P62157 1-149, coupled to agarose).
T2 construct: calmodulin coupled to agarose, bought from Sigma; Commercial reagent; also called calmodulin; source: bought: Sigma (CaM-agarose)
The experiment is described as follows: pull-down; competition: purified GST-C1A1 fragment on CaM-agarose with 200 μM peptide (CaMBD peptide, scrambled peptide or CALP2). The conditions noted are these: both partners purified.

B1: CaMBD peptide (peptide)
peptide: LWYLRKVDQRSTIVYPN
notes: also called WT peptide; the 17AA; source: synthetic peptide (Biomatik)
Consider B1, for which the binding result in the experiment with pure CaM (Sigma) and in the experiment with CaM-agarose (Sigma) was “binds” in each case.
